Laboratory results from publication PMC11404569, “ECT2 peptide sequences outside the YTH domain regulate its m6A-RNA binding”.

T1: ECT2-Fl (untagged) (Arabidopsis thaliana, UniProt Q9LJE5 1-667)
T1 sequence: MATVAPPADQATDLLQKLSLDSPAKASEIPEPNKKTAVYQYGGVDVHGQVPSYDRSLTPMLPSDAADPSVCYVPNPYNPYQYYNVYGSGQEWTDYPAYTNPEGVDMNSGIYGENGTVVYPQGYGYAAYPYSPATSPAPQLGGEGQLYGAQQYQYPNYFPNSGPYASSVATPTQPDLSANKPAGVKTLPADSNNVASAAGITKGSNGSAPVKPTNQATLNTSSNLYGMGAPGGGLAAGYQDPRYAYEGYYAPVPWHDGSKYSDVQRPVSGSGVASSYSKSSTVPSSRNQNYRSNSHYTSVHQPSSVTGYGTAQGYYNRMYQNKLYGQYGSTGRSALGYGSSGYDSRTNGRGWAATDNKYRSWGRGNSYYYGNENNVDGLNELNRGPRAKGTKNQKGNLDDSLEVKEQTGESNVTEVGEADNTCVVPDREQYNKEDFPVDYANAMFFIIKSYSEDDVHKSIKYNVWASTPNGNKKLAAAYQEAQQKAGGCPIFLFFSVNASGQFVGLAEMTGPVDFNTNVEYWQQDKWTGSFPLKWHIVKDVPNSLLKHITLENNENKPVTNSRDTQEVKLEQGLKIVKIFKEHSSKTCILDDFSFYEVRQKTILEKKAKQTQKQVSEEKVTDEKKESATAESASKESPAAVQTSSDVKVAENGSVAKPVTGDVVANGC

T2: ECT2-108 (Arabidopsis thaliana, UniProt Q9LJE5 108-667)
T2 sequence: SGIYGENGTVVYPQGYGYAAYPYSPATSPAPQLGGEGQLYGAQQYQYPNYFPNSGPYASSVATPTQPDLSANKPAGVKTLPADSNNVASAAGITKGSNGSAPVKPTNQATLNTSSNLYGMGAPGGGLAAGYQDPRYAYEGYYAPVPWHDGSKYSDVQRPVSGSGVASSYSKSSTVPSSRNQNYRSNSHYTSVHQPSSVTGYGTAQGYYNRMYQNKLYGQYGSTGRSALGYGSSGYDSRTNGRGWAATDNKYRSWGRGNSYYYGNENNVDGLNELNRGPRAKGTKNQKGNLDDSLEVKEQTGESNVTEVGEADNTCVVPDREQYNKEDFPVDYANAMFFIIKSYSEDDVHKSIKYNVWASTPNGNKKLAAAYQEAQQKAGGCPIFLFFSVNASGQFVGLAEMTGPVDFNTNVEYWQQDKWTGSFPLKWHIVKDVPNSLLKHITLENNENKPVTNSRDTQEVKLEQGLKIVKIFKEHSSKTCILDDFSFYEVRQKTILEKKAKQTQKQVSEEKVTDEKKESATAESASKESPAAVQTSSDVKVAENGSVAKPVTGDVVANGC

T3: ECT2-303 (Arabidopsis thaliana, UniProt Q9LJE5 303-667)
T3 sequence: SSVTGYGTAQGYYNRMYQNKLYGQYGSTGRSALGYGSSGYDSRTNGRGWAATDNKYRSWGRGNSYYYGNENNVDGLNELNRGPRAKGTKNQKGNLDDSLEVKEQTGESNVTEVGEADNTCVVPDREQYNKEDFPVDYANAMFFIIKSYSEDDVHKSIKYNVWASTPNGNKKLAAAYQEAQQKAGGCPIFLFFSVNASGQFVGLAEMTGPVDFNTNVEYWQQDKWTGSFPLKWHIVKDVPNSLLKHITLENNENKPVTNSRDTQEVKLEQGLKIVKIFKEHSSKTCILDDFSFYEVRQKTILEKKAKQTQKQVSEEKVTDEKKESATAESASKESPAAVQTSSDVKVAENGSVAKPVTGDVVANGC

T4: ECT2-444 (Arabidopsis thaliana, UniProt Q9LJE5 444-580)
T4 sequence: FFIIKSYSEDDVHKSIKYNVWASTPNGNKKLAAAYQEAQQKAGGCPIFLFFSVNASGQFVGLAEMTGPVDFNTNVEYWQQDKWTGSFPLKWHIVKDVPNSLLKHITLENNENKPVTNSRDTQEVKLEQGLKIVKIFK

T5: ECT2-204 (Arabidopsis thaliana, UniProt Q9LJE5 204-667)
T5 sequence: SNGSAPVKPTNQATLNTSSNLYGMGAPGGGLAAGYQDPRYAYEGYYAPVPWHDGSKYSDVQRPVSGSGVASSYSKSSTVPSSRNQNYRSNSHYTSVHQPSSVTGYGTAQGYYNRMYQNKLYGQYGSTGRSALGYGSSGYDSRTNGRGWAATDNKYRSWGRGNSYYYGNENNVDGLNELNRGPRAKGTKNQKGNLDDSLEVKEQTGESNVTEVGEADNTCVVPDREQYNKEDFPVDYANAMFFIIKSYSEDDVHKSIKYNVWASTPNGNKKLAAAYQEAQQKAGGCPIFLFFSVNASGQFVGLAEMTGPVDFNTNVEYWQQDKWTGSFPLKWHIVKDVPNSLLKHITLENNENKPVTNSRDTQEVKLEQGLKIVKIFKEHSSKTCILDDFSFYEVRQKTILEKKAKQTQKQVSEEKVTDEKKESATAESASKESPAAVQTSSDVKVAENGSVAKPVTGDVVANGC

T6: ECT2-376 (Arabidopsis thaliana, UniProt Q9LJE5 376-667)
T6 sequence: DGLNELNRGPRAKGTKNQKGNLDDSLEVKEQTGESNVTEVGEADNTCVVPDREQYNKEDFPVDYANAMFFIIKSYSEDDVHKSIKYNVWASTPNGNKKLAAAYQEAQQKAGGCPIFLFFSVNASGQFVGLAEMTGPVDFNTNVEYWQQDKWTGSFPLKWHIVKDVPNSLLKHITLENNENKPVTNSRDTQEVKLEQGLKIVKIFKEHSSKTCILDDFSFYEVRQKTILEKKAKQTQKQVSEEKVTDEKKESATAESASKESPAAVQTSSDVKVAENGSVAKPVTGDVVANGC

T7: ECT2-424 (His-SUMO) (Arabidopsis thaliana, UniProt Q9LJE5 424-610)
T7 sequence: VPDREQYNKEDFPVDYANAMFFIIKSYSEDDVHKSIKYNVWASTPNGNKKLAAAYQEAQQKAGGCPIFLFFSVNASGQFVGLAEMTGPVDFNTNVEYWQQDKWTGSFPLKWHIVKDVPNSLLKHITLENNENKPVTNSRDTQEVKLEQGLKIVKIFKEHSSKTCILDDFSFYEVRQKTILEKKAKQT

B1: Probe I (A) (ssRNA)
RNA: AUGGGCCGUUCAUCUGCUAAAAGGACUGCUUUUGGGGCUUGU
modifications: thiol-protected 3' bases (*G*U)
B2: Probe I m6A (ssRNA)
RNA: AUGGGCCGUUCAUCUGCUAAAAGGACUGCUUUUGGGGCUUGU
modifications: m6A at position 25; thiol-protected 3' bases (*G*U)
B3: Probe IV (A) (ssRNA)
RNA: AUGUGUCUUUCAUGUACUAAAAGGACUGCUCUUGUGUCUUGU
modifications: thiol-protected 3' bases (*G*U)
B4: Probe IV m6A (ssRNA)
RNA: AUGUGUCUUUCAUGUACUAAAAGGACUGCUCUUGUGUCUUGU
modifications: m6A at position 25; thiol-protected 3' bases (*G*U)
B5: Probe III (A) (ssRNA)
RNA: AAGGGCCGAACAACAGCAAAAAGGACUGCAAAAGGGGCAAGA
modifications: thiol-protected 3' bases (*G*A)
B6: Probe III m6A (ssRNA)
RNA: AAGGGCCGAACAACAGCAAAAAGGACUGCAAAAGGGGCAAGA
modifications: m6A at position 25; thiol-protected 3' bases (*G*A)

Legend:
ECT2-Fl (untagged) = biological target: T1, ECT2-Fl (untagged); experiment: EMSA; up to 500 nM; EMSA: 10 nM FAM-RNA; binding buffer 10 mM HEPES pH 8.0, 50 mM KCl, 1 mM EDTA, 0.05% Triton X-100, 5% glycerol, 10 µg/mL salmon DNA, 1 mM DTT, 40 U/mL RNasin; 20 min on ice; native 8% acrylamide TBE gel at 4°C; conditions: protein: recombinant; tags: none (His-SUMO cleaved by TEV); label: 5' FAM
ECT2-108 [1] = biological target: T2, ECT2-108; experiment: as above; conditions: protein: recombinant; tags: N-terminal His-SUMO; label: 5' FAM
ECT2-303 [2] = biological target: T3, ECT2-303; experiment: as above; conditions: protein: recombinant; tags: N-terminal His-SUMO; label: 5' FAM
[3] = biological target: YTHDC1 extended YTH (hDC1) (Homo sapiens, UniProt Q96MU7 345-507); experiment: EMSA; up to 400 nM; EMSA: 10 nM FAM-RNA; binding buffer 10 mM HEPES pH 8.0, 50 mM KCl, 1 mM EDTA, 0.05% Triton X-100, 5% glycerol, 10 µg/mL salmon DNA, 1 mM DTT, 40 U/mL RNasin; 20
ECT2-444 = biological target: T4, ECT2-444; experiment: EMSA; up to 800 nM; EMSA: 10 nM FAM-RNA; binding buffer 10 mM HEPES pH 8.0, 50 mM KCl, 1 mM EDTA, 0.05% Triton X-100, 5% glycerol, 10 µg/mL salmon DNA, 1 mM DTT, 40 U/mL RNasin; 20 min on ice; native 8% acrylamide TBE gel at 4°C; conditions: protein: recombinant; tags: N-terminal His-SUMO; label: 5' FAM
ECT2-204 = biological target: T5, ECT2-204; experiment: EMSA; EMSA: 10 nM FAM-RNA; binding buffer 10 mM HEPES pH 8.0, 50 mM KCl, 1 mM EDTA, 0.05% Triton X-100, 5% glycerol, 10 µg/mL salmon DNA, 1 mM DTT, 40 U/mL RNasin; 20 min on ice; native 8% acrylamide TBE gel at 4°C; conditions: protein: recombinant; tags: N-terminal His-SUMO; label: 5' FAM
ECT2-303 [4] = biological target: T3, ECT2-303; experiment: EMSA; apparent Kd from free probe; EMSA: 10 nM FAM-RNA; binding buffer 10 mM HEPES pH 8.0, 50 mM KCl, 1 mM EDTA, 0.05% Triton X-100, 5% glycerol, 10 µg/mL salmon DNA, 1 mM DTT, 40 U/mL RNasin; 20 min on ice; native 8% acrylamide TBE gel at 4°C; conditions: protein: recombinant; tags: N-terminal His-SUMO; label: 5' FAM
ECT2-108 [5] = biological target: T2, ECT2-108; experiment: EMSA; affinity similar to ECT2-204; EMSA: 10 nM FAM-RNA; binding buffer 10 mM HEPES pH 8.0, 50 mM KCl, 1 mM EDTA, 0.05% Triton X-100, 5% glycerol, 10 µg/mL salmon DNA, 1 mM DTT, 40 U/mL RNasin; 20 min on ice; native 8% acrylamide TBE gel at 4°C; conditions: protein: recombinant; tags: N-terminal His-SUMO; label: 5' FAM
ECT2-376 = biological target: T6, ECT2-376; experiment: EMSA; no stable complex; EMSA: 10 nM FAM-RNA; binding buffer 10 mM HEPES pH 8.0, 50 mM KCl, 1 mM EDTA, 0.05% Triton X-100, 5% glycerol, 10 µg/mL salmon DNA, 1 mM DTT, 40 U/mL RNasin; 20 min on ice; native 8% acrylamide TBE gel at 4°C; conditions: protein: recombinant; tags: N-terminal His-SUMO; label: 5' FAM
ECT2-424 (His-SUMO) = biological target: T7, ECT2-424 (His-SUMO); experiment: as above; conditions: protein: recombinant; tags: N-terminal His-SUMO; label: 5' FAM

Binder	binding result (ECT2-303 [2])	Kd (ECT2-303 [4]) [nM]	binding result (ECT2-376)	binding result (ECT2-424 (His-SUMO))	other results
B1	no binding	–	–	–	binding result (ECT2-Fl (untagged)): no binding; binding result (ECT2-108 [1]): no binding
B2	–	55 ± 7	–	–	binding result [3]: binds; binding result (ECT2-444): no binding; binding signal (ECT2-204): ~5 fold Kd vs ECT2-303; binding signal (ECT2-108 [5]): ~3 fold Kd vs ECT2-Fl
B3	–	–	no binding	no binding	–
B4	–	85 ± 5	–	–	–
B5	no binding	–	no binding	no binding	–
B6	–	39 ± 2	–	–	–
